The text below walks through data of PMC5426849 (Molecular Biology of the Cell, 2017).

Non-standard residues stand in square brackets, D forms with d. No end group written: not given here. Flu = 5-carboxyfluorescein, coupled after removal of the final Fmoc group; pY = N[C@@H](Cc1ccc(OP(=O)(O)O)cc1)C(=O)O A value given as a limit tells only on which side of the number the result lay.

T1: purified recombinant full-length Vav2 (human, UniProt P52735 1-878)
T1 sequence: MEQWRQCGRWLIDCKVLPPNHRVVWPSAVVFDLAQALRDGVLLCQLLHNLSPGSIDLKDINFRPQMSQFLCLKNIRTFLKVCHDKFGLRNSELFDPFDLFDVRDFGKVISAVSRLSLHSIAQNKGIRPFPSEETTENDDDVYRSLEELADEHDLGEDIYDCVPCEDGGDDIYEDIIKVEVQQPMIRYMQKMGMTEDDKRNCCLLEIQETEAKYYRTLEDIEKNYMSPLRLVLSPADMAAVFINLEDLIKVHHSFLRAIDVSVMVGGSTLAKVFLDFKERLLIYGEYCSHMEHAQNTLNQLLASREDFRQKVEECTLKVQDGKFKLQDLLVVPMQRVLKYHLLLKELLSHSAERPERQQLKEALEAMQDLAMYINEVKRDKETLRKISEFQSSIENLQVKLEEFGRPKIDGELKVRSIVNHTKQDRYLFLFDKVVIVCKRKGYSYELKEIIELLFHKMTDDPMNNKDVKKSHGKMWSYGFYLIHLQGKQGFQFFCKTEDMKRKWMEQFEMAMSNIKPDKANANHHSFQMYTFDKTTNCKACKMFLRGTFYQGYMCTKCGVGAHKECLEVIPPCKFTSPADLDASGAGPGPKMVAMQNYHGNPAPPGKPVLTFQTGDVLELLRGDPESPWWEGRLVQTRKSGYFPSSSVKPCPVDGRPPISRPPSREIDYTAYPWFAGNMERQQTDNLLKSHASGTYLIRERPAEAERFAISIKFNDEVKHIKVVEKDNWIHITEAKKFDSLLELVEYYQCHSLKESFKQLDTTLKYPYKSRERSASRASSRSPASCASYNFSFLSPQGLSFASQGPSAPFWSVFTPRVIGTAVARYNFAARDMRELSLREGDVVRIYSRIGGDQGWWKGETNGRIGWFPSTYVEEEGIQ

T2: Nap4/SOCS7 SH2 domain, monomeric, cleaved from GST (human, UniProt O14512 400-509)
T2 sequence: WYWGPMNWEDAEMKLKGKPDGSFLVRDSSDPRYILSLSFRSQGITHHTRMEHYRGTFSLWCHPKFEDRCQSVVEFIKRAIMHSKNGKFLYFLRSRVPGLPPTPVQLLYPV

T3: Vav2 SH2 domain, monomeric, cleaved from GST (human, UniProt P52735 673-767)
T3 sequence: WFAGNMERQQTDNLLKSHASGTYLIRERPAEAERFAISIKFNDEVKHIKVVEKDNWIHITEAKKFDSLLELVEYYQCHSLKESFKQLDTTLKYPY

B1: phosphorylated cortactin (natural protein)
chain: not shown
modifications: phosphotyrosine (confirmed by anti-phosphotyrosine Western blot; sites of this preparation not stated)
B2: fluoresceinated cortactin phospho-Y421 peptide (peptide)
peptide: Flu-SSPI[pY]EDAA
B3: Arg SH2 domain, monomeric, cleaved from GST (domain or fragment)
chain: WYHGPVSRSAAEYLLSSLINGSFLVRESESSPGQLSISLRYEGRVYHYRINTTADGKVYVTAESRFSTLAELVHHHSTVADGLVTTLHYPA

Experiment [1] deals with T1, purified recombinant full-length Vav2. Put plainly: pull-down.
Experiment [2] addresses Nck1 SH2 domain, monomeric, cleaved from GST (human, UniProt P16333 282-376). Briefly: fluorescence polarisation. (Polarisation of emitted light reports the rotation of a fluorescent probe.)
Experiment [3] addresses Src SH2 domain, monomeric, cleaved from GST (human, UniProt P12931 151-248). Put plainly: fluorescence polarisation.
Experiment [4] has as its target T2, Nap4/SOCS7 SH2 domain, monomeric, …. Put plainly: fluorescence polarisation.
The target of experiment [5] is Brk SH2 domain, monomeric, cleaved from GST (human, UniProt Q13882 78-170). Briefly: fluorescence polarisation.
The target of experiment [6] is T3, Vav2 SH2 domain, monomeric, cleaved …. Briefly: fluorescence polarisation.
In experiment [7] the target is Fyn SH2 domain, monomeric, cleaved from GST (human, UniProt P06241 149-246). Briefly: fluorescence polarisation.
The target of experiment [8] is B3. Briefly: fluorescence polarisation.
Experiment [9] concerns the target B2. Put plainly: fluorescence polarisation.

The Kd is the constant that tells how readily two partners part at equilibrium. As for B1, in experiment [1], the Kd turned out to be 1.5 ± 0.3 µM.
Take Flu-EDDT[pY]DGYE [fluoresceinated cortactin phospho-Y482 peptide]: the Kd in experiment [2], in experiment [3], in experiment [4], in experiment [5], in experiment [6] and in [7] was > 5 µM each time. In addition, the Kd in experiment [8] was > 5 µM.
In the case of B2, the binding result in [2], in experiment [3], in experiment [4], in experiment [5] and in experiment [7] was “binds” each time.
As for B3, in experiment [9], the “fold greater affinity than for the phospho-Y466 peptide” value came to 2.5 fold.
